Results published in the supplement of paper PMC9170038.

Test system: MS2 coat protein
Test: apparent KD of MS2 coat protein; designed switch direction (-1 OFF switch, 1 ON switch): 1; higher = weaker reporter binding
How it was run: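 Three titration conditions were used: no input, 200 uM small-molecule ligand, and an oligonucleotide input. In each, SNAP-549-labelled MS2 coat protein was raised from 0.7 or 1.5 nM, doubling, to 3 µM over designed RNA switches transcribed on Illumina chips by stalled E. coli RNA polymerase. Curve fits of normalised cluster fluorescence gave values whose per-design median over clusters is the apparent KD.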

[1] = input ligand: microRNA oligo, concentration not stated
[2] = Eterna round: R95, input ligand: FMN 200 uM
[3] = Eterna round: R95, input ligand: microRNA oligo, concentration not stated
[4] = Eterna round: R95, input ligand: none

| Sequence | apparent KD of MS2 coat protein (input ligand: FMN 200 uM) [nM] | apparent KD of MS2 coat protein [1] [nM] | apparent KD of MS2 coat protein (input ligand: none) [nM] | apparent KD of MS2 coat protein [2] [nM] | apparent KD of MS2 coat protein [3] [nM] | apparent KD of MS2 coat protein [4] [nM] |
| --- | --- | --- | --- | --- | --- | --- |
| GAAAAGACAUGAGGAUCACCCAUGUGGUAGACAGCUAGACGCAAGGAUAUGCAUGUGAUUCUCAUGCAGAAGGUGCUUCUAGGU [Eternabot solution 12] (Eterna round: R96, puzzle: Same State NG 3) | 37.6 | 53.3 | 68.6 | – | – | – |
| GAAAAGCAGAGAGGAUAUGUCACUCAUGCCGUGACACAUGAGGAUCACCCAUGUUCAAUCCGGCCGCAGAAGGCUCCGCGAAAA [Eternabot solution 25] (Eterna round: R96, puzzle: Same State NG 2) | 8.9 | 9.13 | 10.8 | – | – | – |
| GAAUUUGAACUACAGGAUAUAUAGCAGAUGACAUGAGGAUCACCCAUGUAAGAGAAAGGAGGGAAAUAGAAGGGUAUGGGAGGUG [JR_SS2_Sub034] (puzzle: Same State 2) | – | – | – | 34.5 | 32.9 | 37.7 |
| GACAAUCUAUCUGAGGAUAUCAUGAUAAUAACAUGAGGAUCACCCAUGUGCAGGAAAACUGCAUAUGAGAAGGCAGAUAGAUUGA [Mat - Same State 2 - Mod - D14] (puzzle: Same State 2) | – | – | – | 34.2 | 62.3 | 294 |
| GACUGCGUUAUGAAGGAUAUCCGCGUCUGGACAUGAGGAUCACCCAUGUAUACUUGGAUCGUGCAGGAGAAGGUCAAGGGUGAUU [JR_SS002_Sub1210] (Eterna round: R96, puzzle: Same State 2) | 507 | 163 | 243 | – | – | – |
| GAGAGACGAUUAGGAUAUCCGGUGAUAAUGAUAGGAGAAGGAAUUGACAUGAGGAUCACCCAUGUGGGAAUAAUCCAGAGAGAG [Parity 24 - Jieux - Same State NG 1] (Eterna round: R96, puzzle: Same State NG 1) | 86.5 | 66.5 | 89.7 | – | – | – |
| GAGAGAGGGUGAGGAUAUUUAGUGAUAAUGAUAGGAGAAGGCACAGACAUGAGGAUCACCCAUGUGGGAAUAAUCCAGAGAGAG [Parity 9 - Jieux - Same State NG 1] (Eterna round: R96, puzzle: Same State NG 1) | 199 | 31.9 | 186 | – | – | – |
| GAGAGUGAAGUACAGGAUAUGAGGAGAGGAACAUGAGGAUCACCCAUGUGAAAUAGAGAGAAGAGUCAGAAGGGUAGGGAAGAGA [JR_SS2_Sub004] (puzzle: Same State 2) | – | – | – | 32.8 | 31.4 | 23 |
| GAGGGACAGACCAACAUGAGGAUCACCCAUGUCCUCGCAGGUCAGGAUAUCCGUCCAACAGGCAAGGAGAAGGGACGGUGAACC (Eterna round: R96, puzzle: Same State NG 3) | 522 | 1200 | 724 | – | – | – |
| GAGGGCGAAAGCAACAUGAGGAUCACCCAUGUCCUCGGAGGGCAGGAUAUCCGGCGGUAGCCGAAGGAGAAGGGUCGAAAAGAA [AK SSNG3-V2-34] (Eterna round: R96, puzzle: Same State NG 3) | 34.8 | 292 | 61.1 | – | – | – |
| GAGGGCGAAAGCGACAUGAGGAUCACCCAUGUCCUCGGAGGACAGGAUAUCCGGCAAAAGCCGAAGGAGAAGGGUCGAAAAGAA [AK SSNG3-V2-37] (Eterna round: R96, puzzle: Same State NG 3) | 47.2 | 69.7 | 136 | – | – | – |
| GAGUAGUUGAUAGGAUAUUGAUUGUUGUAGGAUCAAGAAGGAUCUAACAUGAGGAUCACCCAUGUAGGACUAUUCCUGUGUAUC [Parity 85 - Jieux - Same State NG 1] (Eterna round: R96, puzzle: Same State NG 1) | 18.6 | 13.7 | 21.4 | – | – | – |
| GAGUGGAGGUAAGGAUAUACAAUGAUAAUCACAGUAGAAGGUACUAACAUGAGGAUCACCCAUGUAGGACUAUACCAGAGAGGG [Parity 39 - Jieux - Same State NG 1] (Eterna round: R96, puzzle: Same State NG 1) | – | 13 | – | – | – | – |
| GAGUGGCAGUUAGGAUAUAUAGUGAUAAUCACAGUAGAAGGAACUGACAUGAGGAUCACCCAUGUAGGACUAAUCCAGAGAGAG [Parity 41 - Jieux - Same State NG 1] (Eterna round: R96, puzzle: Same State NG 1) | 65.7 | 29.8 | 44.2 | – | – | – |
| GAGUGGUGGAGAGGAUAUACAUUGUUAUUCACUGUAGAAGGUUCUAACAUGAGGAUCACCCAUGUAGGACUAUUCCUGAGUUUU [Parity 56 - Jieux - Same State NG 1] (Eterna round: R96, puzzle: Same State NG 1) | – | 8.92 | – | – | – | – |
| GAUAGACAUGAGGAUCACCCAUGUGACAAAACCACAGGAUAUCAUGCAGGCGUAACUGCAUGAGAAGGGUGAGACU [Quanve] (puzzle: Same State 1) | – | – | – | 61.1 | 20.6 | 35.8 |
| GCAAAGGCGGUAGGAUAUCUAGGAUAUGGGAAAGACUAAGUCUGUAGGUCACCUAACCCAGAAGGAGAGAAGGACACCGAAAGG [pwkr ssNG2 2FMN + F9.25] (Eterna round: R96, puzzle: Same State NG 2) | 617 | 9.18 | 73.7 | – | – | – |
| GCAUCACAUGAGGAUCACCCAUGUCUUCGGAGCCGAGGAUAUGGUCACUGUAAACAGUGGCCAGAAGGCGGGAUGC [SS1 - Son of Teenbexe v1] (puzzle: Same State 1) | – | – | – | 30.2 | 41.5 | 61.3 |
| GCCAACUCAUGAGGAUAUGGCACCUUAUUGGUGCCAGAAGGCAUGUCUAUUGACAUGAGGAUCACCCAUGUAUUAUAGUUGGCA [Fiskers NG1ss - 23] (Eterna round: R96, puzzle: Same State NG 1) | 83.9 | 192 | 859 | – | – | – |
| GCCAACUCAUGAGGAUAUGGCACCUUAUUGGUGCCAGAAGGCAUGUCUAUUGACAUGAGGAUCACCCAUGUAUUAUUGUUGGCA [Fiskers NG1ss - 24] (Eterna round: R96, puzzle: Same State NG 1) | 80 | 717 | 893 | – | – | – |
| GCCCGACUCACAGGAUAUGUACCGCCCGAAACAACAGAAGGGUGAGAUCCGGCAUGCACUGACAUGAGGAUCACCCAUGUCCUU [Gebege] (Eterna round: R96, puzzle: Same State NG 1) | 520 | 311 | 765 | – | – | – |
| GCCGCACAUGAGGAUCACCCAUGUAAUUACAUGGGAGGAUAUCAGUGCUCGAAAGAGCACUGAGAAGGCCUAAGGC [SS1 - Omei A] (puzzle: Same State 1) | – | – | – | 419 | 32.4 | 20.8 |
| GCCGCGUUUCGCGCCUACAUGAGGAUCACCCAUGUUUGUAGGCAGGAUAUCGUCCGCUCUGCGGGCGAGAAGGGCUGUUGUGGC [salish99_SSNG3_R04_022] (Eterna round: R96, puzzle: Same State NG 3) | 41.2 | 36.7 | 51.5 | – | – | – |
| GCCGCGUUUCGCGCCUACAUGAGGAUCACCCAUGUUUGUGGGCAGGAUAUCGUCCGCUCUGCGGGCGAGAAGGGCUGUUGUGGG [salish99_SSNG3_R04_024] (Eterna round: R96, puzzle: Same State NG 3) | 231 | 159 | 215 | – | – | – |
| GCGAGCGUACUUGCUACAUGAGGAUCACCCAUGUUCGUUGGACAGGAUAUGGUACCGUUUCGGUACCAGAAGGGUUCACAUGUA [JL SSNG3 3.77] (Eterna round: R96, puzzle: Same State NG 3) | 171 | 224 | 375 | – | – | – |
| GCGCUACAUGAGGAUCACCCAUGUGCGAACGCACGAGGAUAUGCAUGGGCUAAUGCUGGUGCAGAAGGCGUGGCGC [Pin2Pin #8] (puzzle: Same State 1) | – | – | – | – | 23.8 | – |
| GCGGUAACUCACAUGAGGAUCACCCAUGUUCCGGAAACGGCACAGGAUAUCUGUCCGAAAAGGUCAGAGAAGGGUGAAAUCCGC [Fiskers NG3ss - 91] (Eterna round: R96, puzzle: Same State NG 3) | 641 | 290 | 115 | – | – | – |
| GCGUUUAACGUAGGAUAUCGACCUACAUGAGGAUCACCCAUGUCUUUGUAUAGUUUUUUUUGUUACGAGAAGGACGUUUUGCAU [JR_SSNG2_Sub070] (Eterna round: R96, puzzle: Same State NG 2) | 75.1 | 95.2 | 122 | – | – | – |
| GCGUUUAACGUAGGAUAUCGAGCUACAUGAGGAUCACCCAUGUCUUUGUAAAGUUUUUUUAAUUACGAGAAGGACGUUUUGCAU [JR_SSNG2_Sub072] (Eterna round: R96, puzzle: Same State NG 2) | 18.7 | 26.7 | 35.8 | – | – | – |
| GCUACAUGAGGAUCACCCAUGUGUGCGUGGGAGUGAGUGGCUUAGGAUAUCUAUGACUUGAGUUGAGAGAAGGAGGGUUGCUGU [SS-NG3-LRO13] (Eterna round: R96, puzzle: Same State NG 3) | 70.9 | 53.6 | 79.3 | – | – | – |
